Test results reported in PMC3663837.

Legend:
[1] = biological target: SUMO-StPTB1; assay: phage ELISA; settings: parent: est. 0.18; read off a plot
[2] = biological target: SUMO-StPTB6; assay: phage ELISA; settings: parent: est. 0.19; read off a plot

phage-displayed StNova1 subdomain S2 G7del; G11del; G15del; G18del
response [1]: 0.079 λ490 | response [2]: 0.079 λ490

phage-displayed StNova1 subdomain S2 G7del; G11del; P13del
response [1]: 0.044 λ490 | response [2]: 0.043 λ490

phage-displayed StNova1 subdomain S2 G15del; G18del; P21del
response [1]: 0.11 λ490 | response [2]: 0.13 λ490
